Literature values, collected in patent US20250282866A1, “TREATMENT OF DISEASES RELATED TO ATP-BINDING CASSETTE TRANSPORTER 1 DYSFUNCTION USING TREM2 AGONISTS” (VIGIL NEUROSCIENCE, INC., priority 2020, published 2025).

Target: T1, human TREM2 (Homo sapiens, UniProt Q9NZC2)
T1 sequence (Q9NZC2 19-230): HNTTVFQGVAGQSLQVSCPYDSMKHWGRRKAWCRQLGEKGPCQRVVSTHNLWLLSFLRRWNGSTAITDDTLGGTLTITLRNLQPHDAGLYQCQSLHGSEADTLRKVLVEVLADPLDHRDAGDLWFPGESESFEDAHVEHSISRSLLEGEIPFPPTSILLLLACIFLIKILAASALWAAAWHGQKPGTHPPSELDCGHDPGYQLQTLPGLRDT
Details: for Binding Signal (fold over 6E7 Parental antibody) 1st screen 110 nM or 10 nM: values printed without asterisk, concentration 110 nM or 10 nM (footnote a not given)

B1: V64: 6E7 variant: VH T30Q, Q99G; VL Q55A, F94Y (antibody, V domains shown)
VH: EVQLVQSGAEVKKPGESLKISCKGSGYSFQSYWIAWVRQMPGKGLEWMGIIYPGDSDTRYSPSFQGQVTISADKSISTAYLQWSSLKASDTAMYFCARGRTFYYDSSDYFDYWGQGTLVTVSS
VL: DIQMTQSPSSVSASVGDRVTITCRASQGISSWLAWYQQKPGKAPKLLIYAASSLANGVPSRFSGSGSGTDFTLTISSLQPEDFATYFCQQADSYPRTFGQGTKLEIK
- Binding Signal (fold over 6E7 Parental antibody) 1st screen 110 nM or 10 nM: 5.41 fold over 6E7 Parental antibod
- Binding Signal (fold over 6E7 Parental antibody) 2nd screen 2 nM: 4.88 fold over 6E7 Parental antibod
- Binding Signal (fold over 6E7 Parental antibody) 2nd screen 10 nM: 5.48 fold over 6E7 Parental antibod

B2: V84: 6E7 variant: VH S28G, F110S; VL A50G (antibody, V domains shown)
VH: EVQLVQSGAEVKKPGESLKISCKGSGYGFTSYWIAWVRQMPGKGLEWMGIIYPGDSDTRYSPSFQGQVTISADKSISTAYLQWSSLKASDTAMYFCARQRTFYYDSSDYSDYWGQGTLVTVSS
VL: DIQMTQSPSSVSASVGDRVTITCRASQGISSWLAWYQQKPGKAPKLLIYGASSLQNGVPSRFSGSGSGTDFTLTISSLQPEDFATYFCQQADSFPRTFGQGTKLEIK
- Binding Signal (fold over 6E7 Parental antibody) 1st screen 110 nM or 10 nM: 1.44 fold over 6E7 Parental antibod
- Binding Signal (fold over 6E7 Parental antibody) 2nd screen 2 nM: 1.45 fold over 6E7 Parental antibod
- Binding Signal (fold over 6E7 Parental antibody) 2nd screen 10 nM: 1.62 fold over 6E7 Parental antibod

B3: V73: 6E7 variant: VH T30G, S63G, Q99G; VL L54R, F94Y (antibody, V domains shown)
VH: EVQLVQSGAEVKKPGESLKISCKGSGYSFGSYWIAWVRQMPGKGLEWMGIIYPGDSDTRYSPGFQGQVTISADKSISTAYLQWSSLKASDTAMYFCARGRTFYYDSSDYFDYWGQGTLVTVSS
VL: DIQMTQSPSSVSASVGDRVTITCRASQGISSWLAWYQQKPGKAPKLLIYAASSRQNGVPSRFSGSGSGTDFTLTISSLQPEDFATYFCQQADSYPRTFGQGTKLEIK
- Binding Signal (fold over 6E7 Parental antibody) 1st screen 110 nM or 10 nM: 5.12 fold over 6E7 Parental antibod
- Binding Signal (fold over 6E7 Parental antibody) 2nd screen 2 nM: 4.17 fold over 6E7 Parental antibod
- Binding Signal (fold over 6E7 Parental antibody) 2nd screen 10 nM: 5.44 fold over 6E7 Parental antibod

B4: V74: 6E7 variant: VH T30A, T58V, Q99G; VL N56L (antibody, V domains shown)
VH: EVQLVQSGAEVKKPGESLKISCKGSGYSFASYWIAWVRQMPGKGLEWMGIIYPGDSDVRYSPSFQGQVTISADKSISTAYLQWSSLKASDTAMYFCARGRTFYYDSSDYFDYWGQGTLVTVSS
VL: DIQMTQSPSSVSASVGDRVTITCRASQGISSWLAWYQQKPGKAPKLLIYAASSLQLGVPSRFSGSGSGTDFTLTISSLQPEDFATYFCQQADSFPRTFGQGTKLEIK
- Binding Signal (fold over 6E7 Parental antibody) 1st screen 110 nM or 10 nM: 3.94 fold over 6E7 Parental antibod
- Binding Signal (fold over 6E7 Parental antibody) 2nd screen 2 nM: 2.54 fold over 6E7 Parental antibod
- Binding Signal (fold over 6E7 Parental antibody) 2nd screen 10 nM: 4.01 fold over 6E7 Parental antibod

B5: V76: 6E7 variant: VH T30G, S63E, F110S; VL N56K (antibody, V domains shown)
VH: EVQLVQSGAEVKKPGESLKISCKGSGYSFGSYWIAWVRQMPGKGLEWMGIIYPGDSDTRYSPEFQGQVTISADKSISTAYLQWSSLKASDTAMYFCARQRTFYYDSSDYSDYWGQGTLVTVSS
VL: DIQMTQSPSSVSASVGDRVTITCRASQGISSWLAWYQQKPGKAPKLLIYAASSLQKGVPSRFSGSGSGRDFTLTISSLQPEDFATYFCQQADSFPRTFGQGTKLEIK
- Binding Signal (fold over 6E7 Parental antibody) 1st screen 110 nM or 10 nM: 4.57 fold over 6E7 Parental antibod
- Binding Signal (fold over 6E7 Parental antibody) 2nd screen 2 nM: 4.34 fold over 6E7 Parental antibod
- Binding Signal (fold over 6E7 Parental antibody) 2nd screen 10 nM: 4.93 fold over 6E7 Parental antibod

B6: V72: 6E7 variant: VH A35G, Q99G; VL Q55V, F94Y (antibody, V domains shown)
VH: EVQLVQSGAEVKKPGESLKISCKGSGYSFTSYWIGWVRQMPGKGLEWMGIIYPGDSDTRYSPSFQGQVTISADKSISTAYLQWSSLKASDTAMYFCARGRTFYYDSSDYFDYWGQGTLVTVSS
VL: DIQMTQSPSSVSASVGDRVTITCRASQGISSWLAWYQQKPGKAPKLLIYAASSLVNGVPSRFSGSGSGTDFTLTISSLQPEDFATYFCQQADSYPRTFGQGTKLEIK
- Binding Signal (fold over 6E7 Parental antibody) 1st screen 110 nM or 10 nM: 3.64 fold over 6E7 Parental antibod
- Binding Signal (fold over 6E7 Parental antibody) 2nd screen 2 nM: 2.50 fold over 6E7 Parental antibod
- Binding Signal (fold over 6E7 Parental antibody) 2nd screen 10 nM: 4.01 fold over 6E7 Parental antibod

B7: V75: 6E7 variant: VH Q99G; VL N56A, F94Y (antibody, V domains shown)
VH: EVQLVQSGAEVKKPGESLKISCKGSGYSFTSYWIAWVRQMPGKGLEWMGIIYPGDSDTRYSPSFQGQVTISADKSISTAYLQWSSLKASDTAMYFCARGRTFYYDSSDYFDYWGQGTLVTVSS
VL: DIQMTQSPSSVSASVGDRVTITCRASQGISSWLAWYQQKPGKAPKLLIYAASSLQAGVPSRFSGSGSGTDFTLTISSLQPEDFATYFCQQADSYPRTFGQGTKLEIK
- Binding Signal (fold over 6E7 Parental antibody) 1st screen 110 nM or 10 nM: 4.64 fold over 6E7 Parental antibod
- Binding Signal (fold over 6E7 Parental antibody) 2nd screen 2 nM: 3.74 fold over 6E7 Parental antibod
- Binding Signal (fold over 6E7 Parental antibody) 2nd screen 10 nM: 4.52 fold over 6E7 Parental antibod
